The nanobody polyreactivity screen of Harvey et al. (2022)

Experiment: yeast display, Sf9 membrane polyspecificity reagent, FACS + sequencing; frameworks hold sequencing errors
Method in brief: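 A nanobody's polyreactivity label depends on the gate it was sorted from. Yeast display cells were stained with 10% biotinylated, detergent-solubilized Sf9 membrane reagent for 1 hour at 4 °C, enriched on streptavidin microbeads and sorted by FACS. The low and high (top ~1%) gates were set on anti-HA fluorescence for expression and streptavidin fluorescence for reagent binding.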

QVQLVESGGGLVQEGGSLRLSCAASGRTFDSYTMGWYRPAPGKQRELVADITFTGGSTYYADTVKGRFTISRDNAKYIVFLQMNSLKPEDTAVYYCNADREYKWYFRYDYWGQGTQVNVSS
polyreactivity (PSR sort gate): low polyreactivity

QVHLVESGGGLVQAGGSLRISCAASGLTFQRYAMGWYRQAPGKERELVASITGNGGSTYYADSVKGRFTISRDNAQNSVYLQMNSLKPEDTAVFYCNARRYVRTSQQPLYDYWGQGTQVTVSS
polyreactivity (PSR sort gate): high polyreactivity

QVQLVESGGGLVQAGGSLRLSCAASGFTFYLYTMGWYRQAPGNESELVATITSDGGTNYADSVKGRFTISRDNAKNTVYLQMNSLKPEDTAVYYFNAASRRGSRKQAKYDYWGQGTQVTVSS
polyreactivity (PSR sort gate): low polyreactivity

QVQLVESGGGLVQAGGSLRLSCAASGSIIFNNAMGWYRQAPGKERELVAAITTGGSTYYADSVKGRFTISRDNAKNTVYLQMNSLKPEDTAVYYCAAVVVYPYRLGYDYWGQGTQVTVSS
polyreactivity (PSR sort gate): low polyreactivity

QVQLVESGGGLVQAGGSLRLSCAASGIIFKRYTMGWYRQAPGKERELVAAITNRGGTYYADSVKGRFTISRDNAKNTVYLQMNSLKPEDTAVYYCAARYYWIDFKFGGPRDYWGQGTQVTVSS
polyreactivity (PSR sort gate): high polyreactivity

QVQLVESGGGLVQAGGSLRLTCAASGIIFSYNAMGWYRQAPGKERELVAAIRWSGDSTYYADSVKGRFTISRDIAKNTVYLQMNSMKPEDTAVYYCAAEFFLSYPRYEYWGQGTQVTVSS
polyreactivity (PSR sort gate): low polyreactivity

QVQLVESGGGLVQAGGSLRLICAASGFTFASYGMGWYRQARGKERELVAAISWSGGRTYYADSVKGRFTISRDNATNTVYLQMNSLKPEDSAVYYSNAYWNPASKYDYWGQGTQVTVSS
polyreactivity (PSR sort gate): high polyreactivity

QVQLVESGGGLVQAGGSLRLSCAASGSILGTNAMGWYRQAPGKESELVAAINYSGGNTYYADSVKGRFTISRDNAKNTVYLQMNSLKPEDTAVYYCAAVNGWRRVKRFDYWGQGTQVTVSS
polyreactivity (PSR sort gate): high polyreactivity

QVQLVESGGGLVQAGGSLRLSCAASGIIFYPNAMGWYRQAPGKERELVAAITSDGSTYYADSVKGRFTISRDNAMNTVYLQMNSLKPDDTAVYYCAAWDDYGYDYWGQGTQVTVSS
polyreactivity (PSR sort gate): low polyreactivity

QVQLVESGGGLVQAGGSLRLSCAASGGIFDTYAMGWYRQAPGKERELVAAISANGGETYYADSVKGRFTISRDNAKTTVYLQMNSLKPEDTAVYYCAADGFLPILHPVPWSYYYPFGYWGQGTQVTVSS
polyreactivity (PSR sort gate): low polyreactivity

QVQLVESGGGLVHAGGSLRLSCAASGRTQPYNAMGWYRQAPGKERELVAAISKRGSSTYYADSVKGRFTISRDNAKNTVYLQMNSLKPEDTAVYYCATPGPAVHGTRGEYDYWGQGTQVTVSS
polyreactivity (PSR sort gate): high polyreactivity

QVQLVESGGGLVQAGGSHRLSCAASGITFGSYVMGWYRQAPGKERELVAAISRSGGRTYYADSVKGRFTISRDNAKNTVYLQMNSLKPEDTAVYYCAARYDSGNYVYWGQGTQLTVSS
polyreactivity (PSR sort gate): high polyreactivity

QVQIVESGGGLVQAGGSLRLSCAASGRTLGFYAMGWYRQAPGKEREFVAAISSSVGRTYYADSVKGRFTISRDNAKNTVYLHMNRLKPEDTAVYYCAAKVSAWKKKSEMNYWGQGTQVTVSS
polyreactivity (PSR sort gate): high polyreactivity

QVQLVESGGGLVQAGGSLRLSCAASGSIFYGYAMGWYRQSPGKERELVAAISSTGVRSYYADSVKGRFTISRDNAKNTVYLQMNSLKPEDSEVYYCAARRYGPGRYQEDYWGQGSQVTVSS
polyreactivity (PSR sort gate): high polyreactivity

QVQLVESGGGLVQAGGSLRLSCAASGGTLRRYAMGWYRQAPGKERELVAAIIDRSGSTSYADSVKGRFTISRDNAKNTVYLQMNSLKPEDTAVYYCAARTYRTRYYYWGQGTQVTVSS
polyreactivity (PSR sort gate): high polyreactivity

QVQLVESGGGLVQAGGSLRLSCAASGRIFSHYAMGWYRQAPGKERELVAAITSDGSTNYADSVKGRFTISRDNAKNTVYLQMNSLKPEHTAVYYCAKYVHIPYYYYLFGSYDYWGQGTQLTVSS
polyreactivity (PSR sort gate): low polyreactivity

QVQIVESGGGLVQAGGSLRLSCADSGTTFRFNAIGWSRQAPGKERELVAAITGIGGITYYADSVKGRFTISRDNAKNTVYLQMNSLKPEDTAVYYCNAVAARYSVRNGYSTHYDYWGQGTQVTVSS
polyreactivity (PSR sort gate): high polyreactivity

QVQLVESGGGLVQAGGSLRLSCAASGRNFENNAMGWYRQAPGKERELVAAITSSGGRTYYADSVKGRFTISRDNAKNTVYLQMNSLKPEDTAVYYCAADNFAPEFYYWGQGTQVTVSS
polyreactivity (PSR sort gate): low polyreactivity

QVQLVESGGGLVQAGGSLRLSCAASGFTFVINDMGWYRQAPGKERELVADITSGGDTYYADSVKGRFTISRDNAKNTVYLQMNSLTPEDTAVYYCAADIYPDWIYLLYGYWGHGTQVTVSS
polyreactivity (PSR sort gate): low polyreactivity

QVQLVESGGGLVQAGGSLRLSCAASGSIFTGYAMGWYRQAPGKERELVARITKRGGSTYYADSVKGRFTISRDNAKNTVYLQMNSLKPEDTAVFYCNADRKFPYGSYETHDYWGQGTQVTVSS
polyreactivity (PSR sort gate): high polyreactivity

QVQLVEPGGGIVQAGGSLRLSCAASGYIFYNYAMGWYRQAPGKERELVAAITSGGSTYYADSVKGRFTISRDNAKNTVYFQMNSLKPEDTAVYYCAAYLFPAYSRISNDYWGQGTQVTVSS
polyreactivity (PSR sort gate): high polyreactivity

QVQLVESGGGLVQAGGSLRLSCAASGRTLVHYAMGWYRQAPGKERELVAAISYSGGRTYYADSVKGRFTISRDNAKNTVYLQMNSLKPEDTAVYYCAAEIVYPAIGGYGYWGQGTQVTVSS
polyreactivity (PSR sort gate): low polyreactivity

QVQLVESGGGLVQAGGSLRLSCAASGRTSEIYTMGWYRPAPGKERELVASINTNYADSVKGGFTNSRDNAKNTVYLQMNCLKPEDTAVYYCNADDTIEFNYWGQGTQVTVSW
polyreactivity (PSR sort gate): low polyreactivity

QDQLVESGGGIVQEGGSLRLSCAASGLIFRVYAMGWYRQAPGKEWELVATITRGGRTYYADSVKGRFTISRDNAKNTVYLQMNSLKPEDTAVSYCAVLSVRRSYNYWGQGTQVTVSS
polyreactivity (PSR sort gate): high polyreactivity

QVQLVESGGGLVQAGGSLRLSCAASGRIFQPYAMGWYRQAPGKERELVAAITRRAGSTYYADSVKGRFTISRDNAKNTVYLQMNSLKPEDTAVYYCAARGLYWAYEMEYWGQGTQVTVSS
polyreactivity (PSR sort gate): low polyreactivity

QVQLVESGGGLVQAGGSLRLSCAASGSIFANYAMGWYRQAPGKERELVAAITFSSGDSTYYADSVKGRFTISRDNAKNTVYLQMNSLKPEDTAVDYCATVTYGWSGYDYWGQGTQVTVSS
polyreactivity (PSR sort gate): low polyreactivity

QVQLVESGGGLVQAGGSLRLSCAASGITFVYYAMRSYRQAPGKERELVAAITRSGDSTYYADSVKGRFTISRDNAKNTVYLQMNSLKPEDSAVYYCAAESYYSTYQVEYYYWGQGTQVTVSS
polyreactivity (PSR sort gate): high polyreactivity

QVQLVESGGGLVQAGGSLRLSCAASGRTFVRYAMGWYRQAPGKERELVAAISRTGGTTYYADSVKGRFTISRDNAKNTVYLQMNSLKPEDTAVYYCNADPFYKYGYWGQGTQVTVSS
polyreactivity (PSR sort gate): high polyreactivity

QVHLVESGGGLVQAGGSLRLSCAASGRTFVFNAMGWYRQAPGKEREFVAAITWGGGSTYYADSVKGRFTISRDNAKNTVYLQMNSLKPEDTADYYCARPTTYGYYYWGQGTQVTVSS
polyreactivity (PSR sort gate): high polyreactivity

QVQIVESGGGLVQAGGSLRLSCAASGFTIDQYAMGWYRQAPGKERELVAAISWRGGSTYYADSVKGRFTISRDNAKNTVYLQMNSLKPEDTAVYYCNGYSPYHAGVDYGYWGQGTQVTVSS
polyreactivity (PSR sort gate): high polyreactivity

QVQLVESGGGLVQAGGSLRLSCAASGIIFYRNTMGWYRQAPGKERELVASISRGGSTYYADSVKGRFTISRDNAKNTVYLPMNTLKPEDTAVYYCSTSGPQDYSRNFDYWGQGTQVTVSS
polyreactivity (PSR sort gate): low polyreactivity

QVQLVESGGGLVQAGGSLRLSCAASGFIFGQYAMGWYRQAPGKERELVAAISWSGGRTNYADSVKGRYTISRDNAKNTVYLQMNSLKPEDTAVYYCAARKGKYPQYTYGYWGQGTQVTVSS
polyreactivity (PSR sort gate): high polyreactivity

QVQLVVSGGGLVQAGGSLRLSCAASGRIFVINAMGWYRQAPGNERELVAAITWIGGTTYYADSVKGRFTISRDNAKNTVYLQLNSLKREDTAVYYCARQRSYGRSSYSYGYDYWGQGTQVTVSS
polyreactivity (PSR sort gate): high polyreactivity

QVQLVESGGGLVQAGGSLRLSCAASGIIFGGYAMGWYRQAPGKERELVARITSGGSTNYADSVKGRFTISRDNAKNTVYLQMNSLKPEDTAVYYCAARSFWKWGYYYWGQGTQVTVSS
polyreactivity (PSR sort gate): high polyreactivity

QDQLVESGGCLVQAGGSHRLSSAASGIIIWYNTMGRYRQAPGKEREFFARISRRVGSTYYADSVKGRFTISRDNAKNTVYLQMNSLKPEDTAVYYCNRTRYRSFHYDYWGQGTKVTVSS
polyreactivity (PSR sort gate): high polyreactivity

QVQLVESGGGLVQAGGSLRLSCAASGRTFRYYAMGWYRQAPGKERELVAAITSSGGSTYYADSVKGRFTISRDNAKNTVYLQMNSLKPEDTAVYYCNRTPYHAPWQDALYRYGYWGQGTQVTVSS
polyreactivity (PSR sort gate): high polyreactivity

QVQLVESGGGLVQAGGSLRVSCAAYGRIFLANAMGGYRTAAGKERELVAAISYSGGSTYYADSVKGRFTISRDNAKNTVYLQMNSLKPEDTAVYYCAADAFTWYTGRAWKYYYWGHGTQVTVSS
polyreactivity (PSR sort gate): low polyreactivity

QVQLVESGGGLVQAGGSLRLSCDASGSTFGANAMGWYRQAPGKEREFVAAISRSGVRTYYADSVKGRFTISRDNAKNTVYLQMNSLKPEDTAVYYCAADGYWWTYTRYDYWGQGTQVTVSS
polyreactivity (PSR sort gate): low polyreactivity

QVQLVESGGGLVQAGGSLRLSCAASGRILAANAMGWYRQAPGKERELVAAISWSGGRTYYADSVKGRFTISRDNAKNTVYLQMNSLKPEDTAVYYCNKLALAGYDYWGQGTQVTVSS
polyreactivity (PSR sort gate): high polyreactivity

QVQLQDSGGGLVQAGGSLRLSCAASGTISDRAGMGWYRQAPAQNAIVATIDRGTNTNYADSVKGRFTISRDNAKNTVYLQMNSLKPEDTAVYNCAADGRYYIYLDYWGQGTQVTVSS
polyreactivity (PSR sort gate): low polyreactivity

QVQLVESGGGLVQAGGSLRLSCAASGRTFRGYVMGWYRQAPGKEREFVAAITRSDGSTYYADSVKGRFTISRDNAKNTVYLQMNSLKPEDTAVYYCAADLRRFQSYYYWGQGTQVTVSS
polyreactivity (PSR sort gate): high polyreactivity

QVQLVESGGGLVQAGGSLRLSCAASGSTFYVYVMGWYRQAPGKERELVAAISRSGGRTYYADSVKGRFTISRDNAKNTVYLQMNSLKPEDTSGYYCNARGSRRGGPGYEYWGQGTQVTVSS
polyreactivity (PSR sort gate): high polyreactivity

QVQLVESGGGLVQAGGSLRLSCAASGSIFSRYAMGWYSQAPGKELELVAAISWRGGSTYYADSVKGRFTISRDNAKNTVYLQMNSLKPEDTAVYYCAVRDYRPYSRFDFWGQGTQVTVSS
polyreactivity (PSR sort gate): high polyreactivity
